Reference: patent US20220242962A1 (APTEVO RESEARCH AND DEVELOPMENT, published 2022)
Positions count from the first letter of the chain named. Numbers in names are those of the source.

B1: TSC 1007 (other)
chain: EPKSSDKTHTCPPCPAPPAAAPSVFLFPPKPKDTLMISRTPEVTCVVVDVSHEDPEVKFNWYVDGVEVHNAKTKPREEQYNSTYRVVSVLTVLHQDWLNGKEYKCAVSNKALPAPIEKTISKAKGQPREPQVYTLPPSRDELTKNQVSLTCLVKGFYPSDIAVEWESNGQPENNYKTTPPVLDSDGSFFLYSKLTVDKSRWQQGNVFSCSVMHEALHNHYTQKSLSLSPG
notes: IgG1 Fc with E233P, L234A, L235A, deletion of G236, G237A, K322A (EU); also called PAAdel TSC01007
B2: TSC 1004 (other)
chain: EPKSSDKTHTCPPCPAPPVAGAPSVFLFPPKPKDTLMISRTPEVTCVVVDVSHEDPEVKFNWYVDGVEVHNAKTKPREEQYNSTYRVVSVLTVLHQDWLNGKEYKCAVSNKALPAPIEKTISKAKGQPREPQVYTLPPSRDELTKNQVSLTCLVKGFYPSDIAVEWESNGQPENNYKTTPPVLDSDGSFFLYSKLTVDKSRWQQGNVFSCSVMHEALHNHYTQKSLSLSPG
notes: IgG1 Fc with E233P, L234V, L235A, G237A, K322A (EU); also called PVAG TSC01004
B3: TSC 1006 (other)
chain: B2 chain with V19A
notes: IgG1 Fc with E233P, L234A, L235A, G237A, K322A (EU); also called PAAG TSC01006
B4: Clone 6 anti-41BB murine monoclonal antibody (antibody, V domains shown)
VH: QVQLQQPGAELVKPGASVKLSCKASGYTFTSYWINWVKQRPGQGLEWIGNIYPGSSTTNYNEKFKSKATLTVDTSSSTAYMQLSSLTSDDSAVFYCASFSDGYYAYAMDYWVQGTSVTVSS
VL: DIQMTQTTSSLSASLGDRVTITCRASQDISNYLNWYQQKPDGTVKLLIYYTSRLHSGVPSRFSGGGSGTDYSLTISNLEQEDIATYFCQQGYTLPYTFGGGTKLEIK
notes: hybridoma-derived mouse antibody; also called mAb Clone 6; mouse clone 6

Assays:
[1] = biological target: T1, Recombinant FcRn/b2M protein (human, UniProt P55899 24-297; P61769 21-119, limits assumed); assay: SPR pH 6.0, FcRn/b2M immobilized, two-state reaction model
T1 construct: also called hFcRn/b2M; neonatal Fc receptor
T1 sequence (P55899 24-297 limits assumed, chain 1 of 2): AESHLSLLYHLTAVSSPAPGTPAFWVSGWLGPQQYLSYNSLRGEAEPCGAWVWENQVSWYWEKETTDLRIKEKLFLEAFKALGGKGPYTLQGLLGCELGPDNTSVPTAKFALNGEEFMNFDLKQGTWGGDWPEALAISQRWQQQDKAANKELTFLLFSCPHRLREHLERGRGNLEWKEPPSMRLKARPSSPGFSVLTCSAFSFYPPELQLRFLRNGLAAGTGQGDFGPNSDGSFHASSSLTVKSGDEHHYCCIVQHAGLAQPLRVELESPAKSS
T1 sequence (P61769 21-119 limits assumed, chain 2 of 2): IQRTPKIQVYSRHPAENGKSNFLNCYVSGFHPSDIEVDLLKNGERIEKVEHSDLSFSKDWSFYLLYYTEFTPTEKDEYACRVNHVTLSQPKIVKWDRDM
Description: Recombinant FcRn/b2M protein was generated via transient transfection of HEK-293 cells with a bi-cistronic vector containing the genes for both FcRn and […]. The complex was purified using IMAC chromatography and subsequently buffer exchanged into IMAC elution buffer after verifying purity of the IMAC eluate by analytical SEC. hFcRn/b2M at 10 μg/ml in 10 mM sodium acetate (pH 4.5) was immobilized on a CM5 chip by direct amine coupling chemistry to a level of ˜600 RU. A reference flow cell was left blank.
Different concentrations of the Fc variant protein (5-80 nM by 2-fold dilutions in pH 6.0 running buffer) including running buffer as blank were injected in randomized order at 30 μL/min for 180 seconds followed by a 120 second dissociation period.
Sensorgrams obtained from kinetic SPR measurements were analyzed by the double subtraction method. The signal from the reference flow cell was subtracted from the analyte binding response obtained from flow cell with immobilized ligands. Buffer reference was subtracted from analyte binding responses, and the final double-referenced data were analyzed with Biacore T200 Evaluation software (2.0, GE), globally fitting data to derive kinetic parameters. All sensorgrams were fitted using two-state reaction model, as described in Weirong Wang et al, DrugMetab Dispos.: 39(9): 1469-77 (2011).

C1Q = biological target: T2, C1Q (UniProt P02745 23-245; P02746 28-253; P02747 29-245); assay: SPR, Fc captured, C1Q as analyte
T2 construct: also called complement C1Q
T2 sequence (P02745 23-245 limits assumed, chain 1 of 3): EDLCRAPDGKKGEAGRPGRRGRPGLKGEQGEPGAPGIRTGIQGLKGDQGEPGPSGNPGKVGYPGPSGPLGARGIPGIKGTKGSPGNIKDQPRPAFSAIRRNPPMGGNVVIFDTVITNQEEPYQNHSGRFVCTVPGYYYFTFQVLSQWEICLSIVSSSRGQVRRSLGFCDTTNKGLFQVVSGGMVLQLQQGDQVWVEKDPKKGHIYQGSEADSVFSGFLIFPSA
T2 sequence (P02746 28-253 limits assumed, chain 2 of 3): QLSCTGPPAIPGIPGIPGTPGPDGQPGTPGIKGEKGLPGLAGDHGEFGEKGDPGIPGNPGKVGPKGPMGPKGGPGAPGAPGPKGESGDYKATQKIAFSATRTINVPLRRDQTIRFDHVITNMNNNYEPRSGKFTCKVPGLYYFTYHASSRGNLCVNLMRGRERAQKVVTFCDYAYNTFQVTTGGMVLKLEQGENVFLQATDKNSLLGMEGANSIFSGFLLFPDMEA
T2 sequence (P02747 29-245 limits assumed, chain 3 of 3): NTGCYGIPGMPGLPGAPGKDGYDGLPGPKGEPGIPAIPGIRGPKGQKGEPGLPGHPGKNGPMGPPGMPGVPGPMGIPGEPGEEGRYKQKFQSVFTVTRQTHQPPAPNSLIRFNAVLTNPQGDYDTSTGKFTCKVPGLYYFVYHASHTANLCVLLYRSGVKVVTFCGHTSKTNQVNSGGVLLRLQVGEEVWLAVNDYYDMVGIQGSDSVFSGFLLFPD
Description: (§1) Fc mutations to be potentially integrated into an ADAPTIR™ bispecific construct were analyzed for binding to the common Fc receptors (human and cyno) and C1Q, which is a component of the complement activation system. SPR experiments were conducted at 25° C. in HBS-EP+ buffer on a Biacore T200 system.
(§2) For these experiments, all four flow cells of a CM5 sensor chip were immobilized with goat F(ab′)2 anti-human Fc (Jackson ImmunoResearch) to a response level of ˜4000 RU. Fc variants and wild type Fc were diluted to 100 nM in HBS-EP+ and captured on the surface of the chip for 120 seconds at a flow rate of 10 μL/min. Fcγ receptors (human and cyno, all purchased from R&D Systems) and complement (C1Q, purchased from Quidel Corporation and Complement Technology, Inc) were diluted in HBS-EP+ and then flowed as analytes at 30 μL/min for 120 seconds followed by a 120 seconds dissociation. Regeneration was achieved by flowing 10 mM glycine pH 1.7 at 30 μL/min for 30 seconds followed by a 60 seconds stabilization. Flow cell 1 was always left as a blank (no captured protein) for purposes of background signal subtraction. Blank-subtracted sensorgrams for each captured Fc variant were inspected for the presence of binding to any of the Fcγ receptor proteins or complement. There are polymorphisms in the Human Fc receptors IIA and RIIIA, so both sequences were tested for binding.

Cyno RIII = biological target: T3, Cyno RIII (cynomolgus monkey, UniProt Q8SPW2 17-208); assay: SPR, Fc captured, receptor as analyte
T3 construct: extracellular domain
T3 sequence (Q8SPW2 17-208): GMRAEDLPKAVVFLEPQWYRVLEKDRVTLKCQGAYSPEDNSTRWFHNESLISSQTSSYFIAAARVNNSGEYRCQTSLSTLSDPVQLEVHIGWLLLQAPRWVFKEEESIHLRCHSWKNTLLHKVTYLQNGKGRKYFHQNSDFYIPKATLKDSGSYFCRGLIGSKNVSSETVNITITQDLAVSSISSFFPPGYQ
Description: as §2

Fc gamma receptor RIIIB = biological target: T4, Fc gamma receptor RIIIB (human, UniProt O75015 17-200); assay: SPR, Fc captured, receptor as analyte
T4 construct: soluble SPR analyte
T4 sequence (O75015 17-200): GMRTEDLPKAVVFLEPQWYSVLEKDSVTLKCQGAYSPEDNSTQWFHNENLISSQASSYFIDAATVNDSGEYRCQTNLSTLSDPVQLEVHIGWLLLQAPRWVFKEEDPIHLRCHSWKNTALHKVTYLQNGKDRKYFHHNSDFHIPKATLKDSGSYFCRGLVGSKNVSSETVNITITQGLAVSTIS
Description: as §1, §2

Fc gamma receptor RIIB/C = biological target: T5, Fc gamma receptor RIIB/C (human, UniProt P31994 46-217); assay: SPR, Fc captured, receptor as analyte
T5 construct: soluble SPR analyte
T5 sequence (looked up): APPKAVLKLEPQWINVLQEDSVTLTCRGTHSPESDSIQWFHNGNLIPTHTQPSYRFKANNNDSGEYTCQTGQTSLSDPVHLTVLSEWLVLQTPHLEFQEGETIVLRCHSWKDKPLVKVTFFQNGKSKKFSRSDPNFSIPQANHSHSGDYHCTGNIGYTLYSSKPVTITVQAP
Description: as §1, §2

Fc gamma receptor RI = biological target: T6, Fc gamma receptor RI (human, UniProt P12314 16-288); assay: SPR, Fc captured, receptor as analyte
T6 construct: also called FcγRI
T6 sequence (P12314 16-288 limits assumed): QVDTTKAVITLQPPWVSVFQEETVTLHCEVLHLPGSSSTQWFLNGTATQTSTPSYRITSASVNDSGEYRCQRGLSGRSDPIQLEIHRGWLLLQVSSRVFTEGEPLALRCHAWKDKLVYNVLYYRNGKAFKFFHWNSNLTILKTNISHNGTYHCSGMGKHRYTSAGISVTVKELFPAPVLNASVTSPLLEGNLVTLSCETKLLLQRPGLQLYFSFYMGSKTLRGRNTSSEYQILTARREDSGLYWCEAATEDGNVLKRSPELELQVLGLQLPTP
Description: as §1, §2

[2] = biological target: T7, Fc gamma receptor RIIA H167 (human, UniProt P12318 36-218); assay: SPR, Fc captured, receptor as analyte
T7 construct: soluble SPR analyte
T7 sequence (looked up): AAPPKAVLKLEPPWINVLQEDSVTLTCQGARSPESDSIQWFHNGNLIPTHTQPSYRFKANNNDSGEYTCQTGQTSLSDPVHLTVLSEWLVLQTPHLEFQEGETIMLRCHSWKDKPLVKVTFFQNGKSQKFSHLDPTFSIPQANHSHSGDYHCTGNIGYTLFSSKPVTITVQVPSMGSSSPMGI
Description: as §1, §2

[3] = biological target: T8, Fc gamma receptor RIIIA V176 (human, UniProt P08637 17-208); assay: SPR, Fc captured, receptor as analyte
T8 construct: soluble SPR analyte
T8 sequence (P08637 17-208 F176V): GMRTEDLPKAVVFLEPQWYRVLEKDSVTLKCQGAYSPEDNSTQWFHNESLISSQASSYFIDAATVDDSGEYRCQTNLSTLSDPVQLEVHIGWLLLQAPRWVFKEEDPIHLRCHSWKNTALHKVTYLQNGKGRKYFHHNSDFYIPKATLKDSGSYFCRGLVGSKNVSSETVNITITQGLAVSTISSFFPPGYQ
Description: as §1, §2

[4] = biological target: T9, Fc gamma receptor RIIA R167 (human, UniProt P12318 36-218); assay: SPR, Fc captured, receptor as analyte, relative to wild type Fc
T9 construct: soluble SPR analyte
T9 sequence (looked up): T7 sequence (looked up) with H132R
Description: as §1, §2

[5] = biological target: T10, Fc gamma receptor RIIIB on CHO-K1SV cells (human, UniProt O75015 17-200); assay: flow cytometry, CHO-K1SV transfectants
T10 construct: whole, on cells
T10 sequence (O75015 17-200): as the sequence (O75015 17-200) above
Description: (§3) CHO-K1SV cells stably transfected with a series of FcγR receptors were incubated with each of the […] listed in Table 23. A typical experiment labeled approximately 100,000 cells per well, in 96-well plates, with a range of binding molecule concentrations of 1 to 1000 nM, in 100 μl of PBS buffer with 0.2% BSA and 2 mM EDTA, for 30 minutes on ice, followed by washes and incubation with PE-labeled minimum cross species reactive secondary antibody, goat anti-human IgG Fcγ, F(ab′)2 ([…]) for 30 minutes to 1 hour on ice. Signal from bound molecules was detected using a LSR-II™ flow cytometer (BD Biosciences) and analyzed by FlowJo flow cytometry analysis software. Mean fluorescence intensity (MFI) of bound molecules on cells was determined after exclusion of doublets.

[6] = biological target: T11, Fc gamma receptor RIIIA V158 on CHO-K1SV cells (human, UniProt P08637 17-254); assay: flow cytometry, CHO-K1SV transfectants
T11 construct: whole, on cells
T11 sequence (P08637 17-254 F176V): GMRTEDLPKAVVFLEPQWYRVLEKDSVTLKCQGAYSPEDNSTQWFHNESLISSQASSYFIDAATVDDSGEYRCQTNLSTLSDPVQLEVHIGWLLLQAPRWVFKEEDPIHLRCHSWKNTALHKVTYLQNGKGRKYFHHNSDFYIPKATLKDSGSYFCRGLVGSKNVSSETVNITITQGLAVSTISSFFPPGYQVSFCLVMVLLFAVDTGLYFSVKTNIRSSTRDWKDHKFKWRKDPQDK
Description: as §3

[7] = biological target: T12, Fc gamma receptor RI on CHO-K1SV cells (human, UniProt P12314 16-374); assay: flow cytometry, CHO-K1SV transfectants
T12 construct: whole, on cells; also called FcγR1 cells
T12 sequence (P12314 16-374): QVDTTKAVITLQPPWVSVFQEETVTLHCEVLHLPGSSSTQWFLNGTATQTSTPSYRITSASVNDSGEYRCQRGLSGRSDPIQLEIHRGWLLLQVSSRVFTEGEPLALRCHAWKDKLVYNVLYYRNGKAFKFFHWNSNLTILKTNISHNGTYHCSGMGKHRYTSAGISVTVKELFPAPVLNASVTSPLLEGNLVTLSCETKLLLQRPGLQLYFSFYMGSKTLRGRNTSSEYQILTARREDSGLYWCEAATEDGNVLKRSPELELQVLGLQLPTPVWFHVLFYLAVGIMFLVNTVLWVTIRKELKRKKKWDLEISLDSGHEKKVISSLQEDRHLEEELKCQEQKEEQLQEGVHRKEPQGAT
Description: as §3

[8] = biological target: T13, Fc gamma receptor RIIB/C on CHO-K1SV cells (human, UniProt P31994 43-310); assay: flow cytometry, CHO-K1SV transfectants
T13 construct: whole, on cells
T13 sequence (looked up): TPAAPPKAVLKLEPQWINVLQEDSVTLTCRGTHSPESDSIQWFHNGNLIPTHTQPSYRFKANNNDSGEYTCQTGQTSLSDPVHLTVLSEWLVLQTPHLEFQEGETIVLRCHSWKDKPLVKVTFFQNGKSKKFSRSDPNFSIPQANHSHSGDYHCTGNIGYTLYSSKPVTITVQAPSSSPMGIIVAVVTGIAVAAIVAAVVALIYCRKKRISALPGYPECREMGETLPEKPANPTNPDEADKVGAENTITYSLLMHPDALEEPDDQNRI
Description: as §3

[9] = biological target: T14, Fc gamma receptor RIIIA F158 on CHO-K1SV cells (human, UniProt P08637 17-254); assay: flow cytometry, CHO-K1SV transfectants
T14 construct: whole, on cells
T14 sequence (P08637 17-254): as the sequence (P08637 17-254 F176V) above, with V160F counted along it
Description: as §3

[10] = biological target: T15, Fc gamma receptor RIIA H131 on CHO-K1SV cells (human, UniProt P12318 34-317); assay: flow cytometry, CHO-K1SV transfectants
T15 construct: whole, on cells
T15 sequence (looked up): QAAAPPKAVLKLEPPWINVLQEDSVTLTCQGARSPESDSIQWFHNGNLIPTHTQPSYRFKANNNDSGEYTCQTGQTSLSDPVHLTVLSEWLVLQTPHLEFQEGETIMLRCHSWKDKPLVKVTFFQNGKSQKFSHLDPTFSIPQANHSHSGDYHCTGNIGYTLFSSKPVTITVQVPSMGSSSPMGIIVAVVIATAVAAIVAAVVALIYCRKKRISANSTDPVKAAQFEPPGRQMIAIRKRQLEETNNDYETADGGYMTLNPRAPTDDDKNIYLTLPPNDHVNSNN
Description: as §3

[11] = biological target: T8, Fc gamma receptor RIIIA V176; assay: SPR, Fc captured, receptor as analyte, relative to wild type Fc
Description: as §1, §2

Full-length Cyno 4-1BB = biological target: T16, Full-length Cyno 4-1BB (cynomolgus monkey, UniProt Q07011 24-255 (human entry)); assay: binding to cells expressing full length cyno 41BB
T16 construct: on Jurkat or CHO cells; also called FOB006; cynomolgus 4-1BB
T16 chain: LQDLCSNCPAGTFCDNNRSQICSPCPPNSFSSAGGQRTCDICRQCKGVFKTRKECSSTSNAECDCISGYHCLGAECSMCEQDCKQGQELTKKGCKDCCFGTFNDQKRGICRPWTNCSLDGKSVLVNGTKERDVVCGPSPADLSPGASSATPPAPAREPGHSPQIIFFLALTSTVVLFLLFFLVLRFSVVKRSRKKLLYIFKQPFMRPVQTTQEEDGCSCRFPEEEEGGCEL

Full-length Human 4-1BB = biological target: T17, Full-length Human 4-1BB (human, UniProt Q07011 24-255); assay: binding to cells expressing full length human 41BB
T17 construct: also called FOB005; CD137

Binder	Kd [1]	binding result (C1Q)	binding result (Cyno RIII)	binding result (Fc gamma receptor RIIIB)	binding result (Fc gamma receptor RIIB/C)	binding result (Fc gamma receptor RI)	binding result [2]	binding result [3]	binding result [4]	binding result [5]	binding result [6]	binding result [7]	binding result [8]	binding result [9]	binding result [10]	binding result [11]	binding result (Full-length Cyno 4-1BB)	binding result (Full-length Human 4-1BB)
B1	19 nM	no binding	no binding	no binding	no binding	no binding	no binding	no binding	binds	no binding (tested: 1 to 1000 nM)	no binding (tested: 1 to 1000 nM)	no binding (tested: 1 to 1000 nM)	no binding (tested: 1 to 1000 nM)	no binding (tested: 1 to 1000 nM)	no binding (tested: 1 to 1000 nM)	–	–	–
B2	20 nM	no binding	no binding	no binding	no binding	no binding	no binding	no binding	binds	no binding (tested: 1 to 1000 nM)	no binding (tested: 1 to 1000 nM)	no binding (tested: 1 to 1000 nM)	no binding (tested: 1 to 1000 nM)	no binding (tested: 1 to 1000 nM)	no binding (tested: 1 to 1000 nM)	–	–	–
B3	19 nM	no binding	no binding	no binding	no binding	no binding	no binding	–	binds	no binding (tested: 1 to 1000 nM)	–	no binding (tested: 1 to 1000 nM)	no binding (tested: 1 to 1000 nM)	no binding (tested: 1 to 1000 nM)	no binding (tested: 1 to 1000 nM)	binds	–	–
B4	–	–	–	–	–	–	–	–	–	–	–	–	–	–	–	–	binds	binds
